In patent US20080254465, “Assays for measuring nucleic acid binding proteins and enzyme activities” (BioVeris Corporation, published 2008):

Legend:
NF-kB p50 subunit [1] = molecular target: T1, NF-kB p50 subunit (UniProt P19838 P19838:1-433); test: footprint; DNase I protection, similar results to phosphorothioate substrate; details: tags: recombinant, Promega; chain copies: 2 inferred
Protocol: (§1) The labeled DNA substrate (50 fmol), poly dI-dC (1 ug, to reduce non-specific protein-DNA interactions) and varying amounts of recombinant NFkβ (p50 subunit) were combined in a 20 uL volume and incubated for 30 min. at room temperature. Dnase 1 (2 Units in a volume of 2 uL, Promega Corp.) was then added and the incubation was continued for an additional 30 min. at room temperature. The reaction was terminated and the biotin-labeled DNA sequences captured by in the addition of 10 µg of streptavidin Dynabeads (IGEN, International) in 0.3 ml PBS-1 containing 0.2 M EDTA, followed by incubation for 15 minutes. The reaction mixture was introduced into an ORIGEN Analyzer (IGEN International) running in Magnetic Capture Mode and the ECL signal from RuBpy on the magnetic beads was determined in the presence of a solution containing tripropylamine (ORIGEN Assay Buffer, IGEN International). A control was also run in the absence of Dnase to determine the ECL signal obtained from the uncleaved substrate. […] The addition of NFkβ gave a dose dependent increase in signal relative to that obtained from unprotected DNA, the magnitude of which approached, for high concentrations of NFkβ, the signal obtained in the absence of DNAse. The experiment was repeated with an DNA substrate with the same nucleotide sequence but containing only phosphodiester linkages and similar results were obtained.

AP-2 = AP-2 (UniProt P05549 P05549:1-437); test: footprint; ECL 32289 vs 54041 unprotected; no DNase protection; details: chain copies: 2
Protocol: (§2) The labeled DNA substrate (50 fmol), poly dI-dC (1 ug, to reduce non-specific protein-DNA interactions) and varying amounts of recombinant NFkβ (p50 subunit) were combined in a 20 uL volume and incubated for 30 min. at room temperature. Dnase 1 (2 Units in a volume of 2 uL, Promega Corp.) was then added and the incubation was continued for an additional 30 min. at room temperature. The reaction was terminated and the biotin-labeled DNA sequences captured by in the addition of 10 µg of streptavidin Dynabeads (IGEN, International) in 0.3 ml PBS-1 containing 0.2 M EDTA, followed by incubation for 15 minutes. The reaction mixture was introduced into an ORIGEN Analyzer (IGEN International) running in Magnetic Capture Mode and the ECL signal from RuBpy on the magnetic beads was determined in the presence of a solution containing tripropylamine (ORIGEN Assay Buffer, IGEN International). A control was also run in the absence of Dnase to determine the ECL signal obtained from the uncleaved substrate. […]
(§3) The specificity of the assay was determined by replacing the specific binding protein NFkβ with other DNA binding proteins specific for sequences not present on the DNA substrate (the phosphorothioate containing substrate was used).

NF-kB p50 subunit [2] = molecular target: T1, NF-kB p50 subunit; test: footprint; DNase I protection with ECL readout; dose dependent, signal 1729305 at 7 ng vs 96862 unprotected and 2591957 without DNase; poly dI-dC, room temperature; details: tags: recombinant, Promega; chain copies: 2 inferred
Protocol: as §1

SP-1 = SP-1 (UniProt P08047 P08047:2-785); test: footprint; ECL 38880 vs 54041 unprotected; no DNase protection
Protocol: as §2, §3

T1 sequence (P19838 1-433, one chain of several): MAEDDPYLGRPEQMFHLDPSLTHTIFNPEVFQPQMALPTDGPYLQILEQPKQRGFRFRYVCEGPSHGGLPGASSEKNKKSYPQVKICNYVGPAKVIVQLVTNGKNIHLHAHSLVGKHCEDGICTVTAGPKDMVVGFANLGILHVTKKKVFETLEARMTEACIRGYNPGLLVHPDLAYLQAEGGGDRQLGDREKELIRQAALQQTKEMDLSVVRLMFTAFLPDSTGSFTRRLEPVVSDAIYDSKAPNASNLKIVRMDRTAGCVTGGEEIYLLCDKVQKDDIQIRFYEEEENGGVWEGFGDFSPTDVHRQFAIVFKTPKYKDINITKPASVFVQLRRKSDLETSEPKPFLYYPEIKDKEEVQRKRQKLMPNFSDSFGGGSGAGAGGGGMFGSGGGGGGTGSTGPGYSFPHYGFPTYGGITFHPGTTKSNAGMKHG
SP-1, sequence (P08047 2-785, one chain of several): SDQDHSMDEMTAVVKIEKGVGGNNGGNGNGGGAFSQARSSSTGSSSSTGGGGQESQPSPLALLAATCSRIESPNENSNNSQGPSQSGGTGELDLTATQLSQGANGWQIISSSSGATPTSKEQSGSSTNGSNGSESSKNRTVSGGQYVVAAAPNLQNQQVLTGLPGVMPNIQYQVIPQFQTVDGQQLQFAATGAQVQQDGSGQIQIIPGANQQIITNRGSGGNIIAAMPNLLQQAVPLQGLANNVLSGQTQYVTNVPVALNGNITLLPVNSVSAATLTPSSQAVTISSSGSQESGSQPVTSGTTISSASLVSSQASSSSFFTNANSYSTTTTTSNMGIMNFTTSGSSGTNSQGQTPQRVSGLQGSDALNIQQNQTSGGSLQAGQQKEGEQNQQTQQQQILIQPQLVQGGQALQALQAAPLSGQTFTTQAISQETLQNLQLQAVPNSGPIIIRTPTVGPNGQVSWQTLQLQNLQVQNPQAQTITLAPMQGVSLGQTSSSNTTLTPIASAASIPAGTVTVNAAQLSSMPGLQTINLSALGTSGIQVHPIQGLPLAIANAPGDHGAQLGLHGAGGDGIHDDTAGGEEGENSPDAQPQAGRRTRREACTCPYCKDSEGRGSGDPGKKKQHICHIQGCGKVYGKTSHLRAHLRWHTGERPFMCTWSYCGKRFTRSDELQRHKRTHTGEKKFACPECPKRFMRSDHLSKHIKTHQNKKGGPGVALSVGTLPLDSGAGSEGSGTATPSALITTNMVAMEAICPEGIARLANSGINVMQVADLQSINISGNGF
AP-2, sequence (P05549 whole entry, one chain of several): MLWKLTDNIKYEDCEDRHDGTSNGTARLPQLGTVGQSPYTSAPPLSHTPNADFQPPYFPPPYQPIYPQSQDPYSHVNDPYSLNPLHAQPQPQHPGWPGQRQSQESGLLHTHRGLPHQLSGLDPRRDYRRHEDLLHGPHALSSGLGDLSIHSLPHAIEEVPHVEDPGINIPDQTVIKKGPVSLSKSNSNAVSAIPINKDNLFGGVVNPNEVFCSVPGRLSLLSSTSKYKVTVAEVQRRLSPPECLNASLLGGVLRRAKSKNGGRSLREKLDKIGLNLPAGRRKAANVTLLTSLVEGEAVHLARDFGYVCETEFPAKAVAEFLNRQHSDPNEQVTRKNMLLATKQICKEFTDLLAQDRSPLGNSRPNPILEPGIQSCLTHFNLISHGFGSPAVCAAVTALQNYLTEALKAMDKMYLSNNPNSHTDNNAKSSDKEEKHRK

B1: NF-kB consensus substrate, all phosphodiester (dsDNA)
DNA 1: AGTTGAGGGGACTTTCCCAGGC
DNA 2: GCCTGGGAAAGTCCCCTCAACT
- binding result (NF-kB p50 subunit [1]): binds

B2: NF-kB consensus substrate, phosphorothioate (dsDNA)
DNA 1: AGTTGAGGGGACTTTCCCAGGC
DNA 2: GCCTGGGAAAGTCCCCTCAACT
modifications: PS within bracketed nucleotides AGTTGAGG (5') and CCCAGGC (3') of the labelled strand
- binding result (AP-2): no binding
- binding result (NF-kB p50 subunit [2]): binds
- binding result (SP-1): no binding
